# Test results taken from patent publication US20190367631A1 (Regeneron, published 2019).
# T1: monkey MSR1 extracellular domain expressed with a N-terminal hexahistidine-myc-myc tag (HMM-mfMSR1) (monkey (Macaca fascicularis))
# T1 chain: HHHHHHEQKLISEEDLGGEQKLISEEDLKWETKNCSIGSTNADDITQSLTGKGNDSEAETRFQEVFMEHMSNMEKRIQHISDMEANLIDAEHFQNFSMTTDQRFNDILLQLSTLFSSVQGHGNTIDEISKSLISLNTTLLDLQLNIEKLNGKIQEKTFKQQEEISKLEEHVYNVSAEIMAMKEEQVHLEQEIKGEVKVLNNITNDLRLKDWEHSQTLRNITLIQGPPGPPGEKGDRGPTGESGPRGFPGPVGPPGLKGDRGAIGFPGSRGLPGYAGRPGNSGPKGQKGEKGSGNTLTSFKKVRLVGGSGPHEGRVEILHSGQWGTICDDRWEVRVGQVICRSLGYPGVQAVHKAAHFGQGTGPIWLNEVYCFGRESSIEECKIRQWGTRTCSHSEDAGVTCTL
# T2: human MSR1 extracellular domain expressed with a N-terminal nonahistidine tag (His9-hMSR1); R&D Systems, Cat … (human, UniProt P21757 77-451)
# T2 construct: extracellular domain; also called His-hMSR1; 9xHis-hMSR1; not shown: N-terminal nonahistidine tag
# T2 sequence (looked up): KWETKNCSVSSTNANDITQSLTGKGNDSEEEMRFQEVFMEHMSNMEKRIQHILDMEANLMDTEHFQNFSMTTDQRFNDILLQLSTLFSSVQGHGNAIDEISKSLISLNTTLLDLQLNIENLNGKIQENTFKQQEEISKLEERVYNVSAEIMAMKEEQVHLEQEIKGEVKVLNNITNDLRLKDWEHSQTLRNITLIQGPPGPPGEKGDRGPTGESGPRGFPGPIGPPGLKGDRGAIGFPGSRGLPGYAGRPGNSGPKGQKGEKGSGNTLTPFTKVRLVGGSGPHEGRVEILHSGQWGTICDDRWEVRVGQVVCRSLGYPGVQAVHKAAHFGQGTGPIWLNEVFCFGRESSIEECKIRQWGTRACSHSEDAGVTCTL
# T3: full length human MSR1 with a C-terminal Myc tag, on HEK293.Myc.hMSR1 cells (human, UniProt P21757 1-451)
# T3 sequence (looked up): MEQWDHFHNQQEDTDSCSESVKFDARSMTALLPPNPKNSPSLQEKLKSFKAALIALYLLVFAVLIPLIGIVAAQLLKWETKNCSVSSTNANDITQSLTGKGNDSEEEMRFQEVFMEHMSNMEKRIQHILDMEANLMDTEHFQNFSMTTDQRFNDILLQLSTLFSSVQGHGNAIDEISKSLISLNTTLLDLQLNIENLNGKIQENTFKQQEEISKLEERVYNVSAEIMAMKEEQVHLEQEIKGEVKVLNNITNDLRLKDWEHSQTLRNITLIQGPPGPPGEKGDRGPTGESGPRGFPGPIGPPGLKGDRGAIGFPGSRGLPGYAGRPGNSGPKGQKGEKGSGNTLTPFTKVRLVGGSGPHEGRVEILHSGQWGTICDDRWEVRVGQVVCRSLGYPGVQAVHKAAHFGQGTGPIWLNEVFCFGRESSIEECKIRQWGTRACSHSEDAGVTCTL
# T4: mouse MSR1 on RAW264.7 cells (mouse, UniProt P30204 1-458)
# T4 construct: whole, on cells; also called MSR1 positive RAW264.7 cells
# T4 sequence (looked up): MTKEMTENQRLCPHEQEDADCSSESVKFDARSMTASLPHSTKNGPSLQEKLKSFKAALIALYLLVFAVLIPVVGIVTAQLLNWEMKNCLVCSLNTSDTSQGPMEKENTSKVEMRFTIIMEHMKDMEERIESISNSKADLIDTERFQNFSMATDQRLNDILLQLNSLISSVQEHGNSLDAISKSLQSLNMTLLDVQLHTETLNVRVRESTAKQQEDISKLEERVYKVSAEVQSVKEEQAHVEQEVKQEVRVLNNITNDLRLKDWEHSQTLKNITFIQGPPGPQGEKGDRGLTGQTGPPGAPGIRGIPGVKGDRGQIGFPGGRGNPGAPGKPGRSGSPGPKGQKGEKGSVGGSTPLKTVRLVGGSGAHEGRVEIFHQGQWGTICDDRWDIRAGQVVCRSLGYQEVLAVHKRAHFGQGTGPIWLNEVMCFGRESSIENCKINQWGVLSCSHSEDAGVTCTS
# Assays:
# [1] = target: T1, monkey MSR1 extracellular domain …; experiment: SPR Biacore, 37 C, antibody captured
# Method: (§1) Binding affinities and kinetic constants of human anti-MSR1 antibodies for different MSR1 reagents were determined by real-time surface plasmon resonance (Biacore 4000). All binding studies were performed in 10 mM HEPES, 150 mM NaCl, 3 mM EDTA, and 0.05% v/v Surfactant Tween-20, pH 7.4 (HBS-ET) running buffer at 25° C. and 37° C.
# (§2) The association rate (kₐ) and dissociation rate (kd) were determined by fitting the real-time binding sensorgrams to a 1:1 binding model with mass transport limitation using Scrubber 2.0c curve-fitting software. Binding dissociation equilibrium constant (KD) and dissociative half-life (t½) were calculated from the kinetic rates as:
# [2] = target: T2, human MSR1 extracellular domain …; experiment: SPR Biacore, 37 C, antibody captured
# Method: as §1, §2
# [3] = target: T1, monkey MSR1 extracellular domain …; experiment: SPR Biacore, 25 C, antibody captured;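 note: rates from 1:1 fit with mass transport limitation of real-time sensorgrams, HEPES-buffered saline with EDTA and Tween-20 at pH 7.4, KD and t½ derived from the kinetic rates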
# Method: as §1, §2
# [4] = target: T2, human MSR1 extracellular domain …; experiment: SPR Biacore, 25 C, antibody captured;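 note: rates from 1:1 fit with mass transport limitation of real-time sensorgrams, HEPES-buffered saline with EDTA and Tween-20 at pH 7.4, KD and t½ derived from the kinetic rates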
# Method: as §1, §2
# [5] = target: T3, full length human MSR1 with a …; experiment: cell-based or functional assay
# [6] = target: T4, mouse MSR1 on RAW264.7 cells; experiment: flow cytometry, RAW264.7 cells
# Method: To block binding to Fc receptors, RAW264.7 cells were incubated for 30 minutes at 4° C. with 500 pg/mL mouse IgG (Jackson ImmunoResearch, Cat #015-000-003) diluted in staining buffer, while B16F10.9 cells remained in staining buffer. […] The signal to noise (S/N) was determined by calculating the ratio of the anti-MSR1 antibodies or the control antibodies MFI to the unstained sample MFI (Table 11).
# Throughout, for % Inhibition of Dil-Acetylated LDL uptake: test concentration or dose not given here.
# Throughout, for % Inhibition of Dil-Oxidized LDL uptake: test concentration or dose not given here.
% Inhibition of Dil-Acetylated LDL uptake [5] [%],% Inhibition of Dil-Oxidized LDL uptake [5] [%],IC50 of Dil-Acetylated LDL uptake inhibition [5] [nM],MFI [6] [MFI],S/N (MFI over unstained MFI) [6],Binder,other results
–,–,–,–,–,"H1H27761P-N297Q (antibody, V domains shown, Human IgG1 Fc with N297Q; tied by the numerical identifier; also called H1H27761P2-N297Q; H1H27761P2) VH: EVQLVESGGDLVQPGGSLRLSCSASGFTFNIYAMSWVRQAPGKGLEWVSGISGSGGSTYYADSVKGRFTISRDNSKNTLYFQMNSLRVEDTAVYYCAKKISSSSYYYYAMDVWGQGTTVTVSS VL: not shown",Kd [1]: 2.32 nM; koff [1]: 0.00214 s⁻¹; kon [1]: 920000 M⁻¹ s⁻¹; t½ [1]: 5 min; Kd [2]: 3.26 nM; koff [2]: 0.00222 s⁻¹; kon [2]: 681000 M⁻¹ s⁻¹; t½ [2]: 5 min; Kd [3]: 1.88 nM; koff [3]: 0.000597 s⁻¹; kon [3]: 318000 M⁻¹ s⁻¹; t½ [3]: 19 min; Kd [4]: 1.63 nM; koff [4]: 0.00051 s⁻¹; kon [4]: 312000 M⁻¹ s⁻¹; t½ [4]: 23 min
42,76,> 100,4570,1,"H1H27756P-N297Q (antibody, human IgG1, V domains shown, human IgG1 Fc with N297Q) VH: QVQLVESGGGVVQPGRSLRLSCAASGFTFSNYDMHWVRQAPGKGLEWMAVISYDGINKYYADSVKGRFTISRDNSKNTLYLQMNSLRAEDTAVYYCAKGTYSWYFDLWGRGTLVTVSS VL: not shown",–
–,–,–,3630,1,"H1H27747P-N297Q (antibody, human IgG1, V domains shown, human IgG1 Fc with N297Q) VH: QVQLVESGGAVVQPGRSLRLSCAASGFTFSYYGMHWVRQAPGKGLEWVAVISYDGSKKYYADSVKGRFTISRDNSKNTLYLQMNSLRAEDTAVYYCAKDLTVDFYYGMDVWGQGTTVTVSS VL: DIQMTQSPSSVSASVGDRVTITCRASQGISSWLAWYQQKPGKAPKLLIYATSSLQSGAPSRFSGSGSGTDFTLTISSLQPEDFATYFCQQANSFPYTFGQGTKLEIKR",–
–,–,–,5410,1,"H1H27754P-N297Q (antibody, human IgG1, V domains shown, human IgG1 Fc with N297Q) VH: EVQLVESGGGLVQPGGSLRLSCAASGFTFRTYAMTWVRQAPGKGLDWVSAITGDGGNTYYADSVKGRFTISRDNSKNTLYLQMNSLRAEDTAIYYCAKDQRFSFALYYFDYWGQGTLVTVSS VL: DIQMTQSPSSVSASVGDRVTITCRASQGISSWLAWYQQKPGNAPKLLIYAAFSLQSGVPSRFSGSGSGTDFTLTISSLQPEDFATYYCQQANNFPWTFGQGTKVEIKR",–
62,90,3.7,–,–,"H2aM21227N (antibody, mouse IgG2a, V domains shown) VH: QVQLVQSGAEVKKPGASVKVSCKVSGYTLTELSIHWVRQVPGKGLEWMGGFDPEEGETIFAQEFRDRVTLTEDTSPDTAYMELSSLKSEDAAVYYCTTPRYCNNGICYDYWGQGTLVTVSS VL: DIQMTQSPSSLSASVGDRVTITCRASQSISNYLNWYQQKPGKAPKLLIYTASSLQSGVPSRFSGSGSGTDFTLTISSLQTEDFATYYCQQSYSNFPITFGQGTRLEIKR",IC50 of Dil-Oxidized LDL uptake inhibition [5]: 3.1 nM
–,–,–,3580,1,"H1H21231N-N297Q (antibody, human IgG1, V domains shown, human IgG1 Fc with N297Q point mutation) VH: EVQLVESGGGLVQPGGSLRLSCAASGFTFSDHYMDWVRQAPGKGLEWVGRTRNKANSHTTEYTASVTGRFTISRDDSRNSLYLQMNSLKTEDTAVYYCVRAGIIGTLFDYWGQGTLVTVSS VL: DIQMTQFPSSLSASVGDRVTITCRASQSISSFLNWFQQKPGKAPKFLIYAASSLQSGVPSRFSGSGSGTDFTLTISSLQPEDFATYYCQQSYSSPPITFGQGTRLEIKR",–
50,79,> 20,–,–,"H1M21231N (antibody, V domains shown) VH: EVQLVESGGGLVQPGGSLRLSCAASGFTFSDHYMDWVRQAPGKGLEWVGRTRNKANSHTTEYTASVTGRFTISRDDSRNSLYLQMNSLKTEDTAVYYCVRAGIIGTLFDYWGQGTLVTVSS VL: DIQMTQFPSSLSASVGDRVTITCRASQSISSFLNWFQQKPGKAPKFLIYAASSLQSGVPSRFSGSGSGTDFTLTISSLQPEDFATYYCQQSYSSPPITFGQGTRLEIKR",IC50 of Dil-Oxidized LDL uptake inhibition [5]: 3.7 nM
–,–,–,–,1,"H1H27773P2-N297Q (antibody, human IgG1, V domains shown, human IgG1 Fc with N297Q; also called H1H27773P-N297Q) VH: EVQLVESGGGLVQPGGSLRLSCAASGFTFSSYAMNWVRQAPGKGLEWVSAISGSGDSTYYADSVKGRFTISRDNSRTTLSLQLNSLRAEDTAVYYCAKDRLLWFGELGSPFHYWGQGTLVTVSS VL: not shown",–
–,–,–,–,1,"H1H27778P2-N297Q (antibody, human IgG1, V domains shown, human IgG1 Fc with N297Q; also called H1H27778P-N297Q) VH: EVQLVESGGGLEQPGGSLRLSCAASGFTFSSYAMSWVRQAPGKGLEWVSVISGSGGYTNYADSVKGRFTISRDNSKNTLYLQMNRLRAEDSAVYYCARHNWNYDYYGMDVWGQGTTVTVSS VL: not shown",–
–,–,–,3550,1,"H1H27736P-N297Q (antibody, human IgG1, V domains shown, human IgG1 Fc with N297Q) VH: EVQLVESGGGLVQPGGSLRLSCAASGFTFSSYAMSWVRQAPGKGLEWVSSISGSGDSTFYTDSVKGRFTISRDISKNTLYLQMNSLRAEDTAVYYCAKDRLLWFGDLISPFHYWGQGTLVTVSS VL: EIVLTQSPGTLSLSPGERATLSCRASQSVSNIYLAWYQQKPAQAPRLLIYGASSRATGIPDRFSVSGSGTDFTLTISRLEPEDFAVYYCQQYGSSPRTFGQGTKVEIKR",–
24,64,> 100,–,–,"H2aM21235N (antibody, mouse IgG2a, V domains shown) VH: EVQLVESGGGLVQPGGSLRLSCAASGFTFSDHYMDWVRQAPGKGLEWVGRTRNKANSYTTEYAASVSGRFTISRDDSKNSLYLQMNSLKTEDTAVYYCTRAGIIGTLFDYWGQGTLVTVSS VL: DIQMTQSPSSLSASVGDRVTITCRASQIIGRYLNWFQQKPGKVPKLLIYAASSLQRGVPSRFSGSGSGTDFTLTISSLQPEDFATYYCQQSYNTPPITFGQGTRLEIKR",–
–,–,–,–,1,"H1H27771P2-N297Q (antibody, human IgG1, V domains shown, human IgG1 Fc with N297Q; also called H1H27771P-N297Q) VH: EVQLVESGGGLVQPGGSLRLSCAASGFTFSSYGMNWVRQAPGKGLEWVSVISGSGGSTYYADSVKGRFTISRDNSKNTLYLQMNSLRAEDTAVYYCAKDRWTYYYDSSGSPFDYWGQGTLVTVSS VL: not shown",–
–,–,–,3790,1,"H1H27749P-N297Q (antibody, human IgG1, V domains shown, human IgG1 Fc with N297Q) VH: QVQLQESGPGLVKPSETLSLTCTVSDGSISSYYWSWIRQPPGRGLEWIGFIYYSGSTSYNPSLKSRVTISVDTSMSQFSLKLRSVTAADTAVYYCARGSPFDYWGPGTLVTVSS VL: EIVLTQSPGTLSLSPGERATLSCRASQSVSSSYLAWYQQRPGQAPSLLISGASRRATGIPDRFSGSGSGTDFTLTIRRLEPEDFAMYYCQQYGSSPPTFGGGTKVEIKR",–
19,61,1.8,–,–,"H2bM21234N (antibody, V domains shown) VH: QVQLQESGPGLVKPSETLSLTCTVTGGSISRNYWSWIRQPPGKGLEWIGYIYYSGSIDYNPSLKSRVTISVDTSKNQFSLKLSSMTAADTAVYYCARDRWNWKYGMDVWGQGTTVIVSS VL: EIVLTQSPGTLSLSPGERATLSCRASQTVRNNYLAWYHQKPGQAPRLLIYGASSRATGIPDRFSGSGSGTDFTLTISRLEPEDFTVYYCHQYGNSPWTFGQGTKMEIKR",IC50 of Dil-Oxidized LDL uptake inhibition [5]: 4.5 nM
